From paper PMC6433865

Assays:
[1] = molecular target: T1, C terminus of Hsc70-interacting protein (CHIP) (human), Q9UNE7; assay: cryo-EM structure; ternary complexes after GraFix, vitrified; Titan Krios 300 kV (Hsp70:p53-TMGST:CHIP, 15 Å) or Talos Arctica 200 kV (Hsp90:p53-TMGST:CHIP, 13 Å); atomic structures docked; conditions: remark: other sources report otherwise
T1 chain: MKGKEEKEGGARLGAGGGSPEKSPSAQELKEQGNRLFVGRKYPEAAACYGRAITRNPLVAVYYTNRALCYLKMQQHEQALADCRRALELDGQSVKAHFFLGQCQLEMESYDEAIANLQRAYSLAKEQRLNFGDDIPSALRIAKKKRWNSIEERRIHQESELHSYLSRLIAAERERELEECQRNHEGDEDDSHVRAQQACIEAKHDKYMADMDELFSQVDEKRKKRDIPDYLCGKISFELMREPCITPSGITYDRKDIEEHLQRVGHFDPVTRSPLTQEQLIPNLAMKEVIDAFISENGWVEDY

[2] = molecular target: T1, C terminus of Hsc70-interacting protein …; assay: negative-stain electron microscopy, 3D reconstruction; complexes stabilised and isolated by GraFix (10-30% glycerol gradient, 0.15% glutaraldehyde), stained with 2% uranyl acetate, JEOL JEM1010 at 80 kV; atomic structures docked into 19-26 Å volumes; conditions: remark: other sources report otherwise

stoichiometry N [1]: 2
stoichiometry N [2]: 2
B1: C terminus of Hsc70-interacting protein (CHIP), Q9UNE7 1-303 (enzyme)
chain: T1 chain
